Experimental data from publication PMC7570257.

Molecular target: PRMT1 catalytic core construct
Experiment: SEC

stoichiometry N: 4
Substance: PRMT1 catalytic core construct (domain or fragment)
